Source: patent US20150274820A1 (ESBATECH AN ALCON BIOMEDICAL RESEARCH UNIT, published 2015)

T1: recombinant human PLGF (human, UniProt P49763-2 19-149, limits assumed)
T1 construct: Negative control; also called PIGF
T1 sequence (looked up): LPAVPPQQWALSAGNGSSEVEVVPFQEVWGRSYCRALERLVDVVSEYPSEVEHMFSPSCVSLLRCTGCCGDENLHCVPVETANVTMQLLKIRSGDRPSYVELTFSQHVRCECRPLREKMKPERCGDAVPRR

T2: recombinant human VEGF121 (human, UniProt P15692 27-147)
T2 construct: mature; Isoform VEGF121 of the entry; also called hVEGF121
T2 sequence (looked up): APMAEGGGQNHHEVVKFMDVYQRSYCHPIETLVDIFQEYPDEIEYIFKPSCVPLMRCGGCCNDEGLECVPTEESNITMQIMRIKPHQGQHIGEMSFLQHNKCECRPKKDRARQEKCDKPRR

T3: recombinant human VEGF110 (human, UniProt P15692-4 27-136, limits assumed)
T3 construct: Made in house; also called hVEGF110
T3 sequence (looked up): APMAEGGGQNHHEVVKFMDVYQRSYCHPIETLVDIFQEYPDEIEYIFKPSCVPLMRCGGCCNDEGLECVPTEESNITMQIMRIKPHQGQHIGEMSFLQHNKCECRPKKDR

B1: 578min_max T84N_V89L (scFv)
scFv: EIVMTQSPSTLSASVGDRVIITCQASEIIHSWLAWYQQKPGKAPKLLIYLASTLASGVPSRFSGSGSGAEFTLTISSLQPDDFATYYCQNVYLASTNGANFGQGTKLTVLGGGGGSGGGGSGGGGSGGGGSEVQLVESGGGLVQPGGSLRLSCTASGFSLTDYYYMTWVRQAPGKGLEWVGFIDPDDDPYYATWAKGRFTISRDNSKNTLYLQMNSLRAEDTAVYYCAGGDHNSGWGLDIWGQGTLVTVSS
notes: the VH entry already carries T84N and V89L; tied by name; also called Protein No. 1008
B2: 578min_max T84N_V89L_DHP (scFv)
scFv: EIVMTQSPSTLSASVGDRVIITCQASEIIHSWLAWYQQKPGKAPKLLIYLASTLASGVPSRFSGSGSGAEFTLTISSLQPDDFATYYCQNVYLASTNGANFGQGTKLTVLGGGGGSGGGGSGGGGSGGGGSEVQLVESGGGSVQPGGSLRLSCTASGFSLTDYYYMTWVRQAPGKGLEWVGFIDPDDDPYYATWAKGRFTISRDNSKNTLYLQMNSLRAEDTATYYCAGGDHNSGWGLDIWGQGTTVTVSS
B3: 578minmax FW1.4_DHP (scFv)
scFv: EIVMTQSPSTLSASVGDRVIITCQASEIIHSWLAWYQQKPGKAPKLLIYLASTLASGVPSRFSGSGSGAEFTLTISSLQPDDFATYYCQNVYLASTNGANFGQGTKLTVLGGGGGSGGGGSGGGGSGGGGSEVQLVESGGGSVQPGGSLRLSCTASGFSLTDYYYMTWVRQAPGKGLEWVGFIDPDDDPYYATWAKGRFTISRDTSKNTVYLQMNSLRAEDTATYYCAGGDHNSGWGLDIWGQGTTVTVSS
notes: tied by name only
B4: 509-max (scFv)
scFv: EIVMTQSPSTLSASVGDRVIITCQASQNIRIWLSWYQQKPGKAPKLLIYKASTLESGVPSRFSGSGSGTEFTLTISSLQPDDFATYYCQNNAHYSTNGGTFGQGTKLTVLGGGGGSGGGGSGGGGSGGGGSEVQLVESGGGLVQPGGSLRLSCTASGFSLSSYYMCWVRQAPGKGLEWVGCLDYVGDTDYASWAKGRFTISKDASKNTVYLQMNSLRAEDTAVYYCARTDDSRGWGLNIWGQGTLVTVSS
notes: VL and VH tied by name; also called Protein Nr; 855
B5: 509-min (scFv)
scFv: EIVMTQSPSTLSASVGDRVIITCQASQNIRIWLSWYQQKPGKAPKLLIYKASTLESGVPSRFSGSGSGAEFTLTISSLQPDDFATYYCQNNAHYSTNGGTFGQGTKLTVLGGGGGSGGGGSGGGGSGGGGSEVQLVESGGGLVQPGGSLRLSCAASGFSLSSYYMCWVRQAPGKGLEWVSCLDYVGDTDYASWAKGRFTISRDNSKNTLYLQMNSLRAEDTAVYYCAKTDDSRGWGLNIWGQGTLVTVSS
notes: VL and VH tied by name; also called Protein Nr; 854
B6: 567-max (scFv)
scFv: EIVMTQSPSTLSASVGDRVIITCQADQSIYIWLSWYQQKPGKAPKLLIYKASTLESGVPSRFSGSGSGTQFTLTISSLQPDDFATYYCQNNAHYSTNGGTFGQGTKLTVLGGGGGSGGGGSGGGGSGGGGSEVQLVESGGGLVQPGGSLRLSCSVSGFSLSDYYMCWVRQAPGKGLEWVGCLDYFGSTDDASWAKGRFTISKDTSKNTVYLQMNSLRAEDTAVYYCARTDDSRGWGLNIWGQGTLVTVSS
notes: VL and VH tied by name; also called Protein Nr; 874
B7: 435-max (scFv)
scFv: EIVMTQSPSTLSASVGDRVIITCQASQSIGSSLAWYQQKPGKAPKLLIYTAANLASGVPSRFSGSRSGAEFTLTISSLQPDDFATYYCQNFATSDTVTFGQGTKLTVLGGGGGSGGGGSGGGGSGGGGSEVQLVESGGGLVQPGGSLRLSCKASGFSLNTNYWMCWVRQAPGKGLEWVGCMYTGSYNRAYYASWAKGRFTSSKDTSKNTVYLQMNSLRAEDTAVYYCAKGSNWYSDLWGQGTLVTVSS
notes: the scFv entry is used; also called Protein Nr; 945

Experiments:
[1] = target: recombinant murine VEGF164 (mouse) (UniProt Q00731); assay: Biacore SPR, VEGF immobilized, pH 5
[2] = target: recombinant rat VEGF164 (rat) (UniProt P16612); assay: Biacore SPR, VEGF immobilized, pH 5
[3] = target: recombinant murine VEGF164 (mouse) (UniProt Q00731); assay: Biacore SPR; ratio to hVEGF165
[4] = target: recombinant rat VEGF164 (rat) (UniProt P16612); assay: Biacore SPR; ratio to hVEGF165
[5] = target: T4, recombinant human VEGF165 (human, UniProt P15692 27-191); assay: Biacore SPR, VEGF immobilized, pH 5
T4 construct: mature; Isoform VEGF165 of the entry; also called hVEGF165; hVEGF
Experimental: In this example, the Biacore-binding ability of scFvs was tested and the binding affinity was measured using the exemplary surface plasmon resonance method with BIAcore™-T100. The VEGF proteins, tested for binding by these scFv candidates, in this example and later examples include purified Escherichia coli-expressed recombinant human VEGF₁₆₅ (PeproTech EC Ltd.), recombinant human VEGF₁₂₁ (PeproTech EC Ltd.), recombinant human VEGF₁₁₀ (ESBATech AG), recombinant murine VEGF₁₆₄ (PeproTech EC Ltd.), recombinant rat VEGF₁₆₄ (Biovision), recombinant rabbit VEGF₁₁₀ (ESBATech AG), and recombinant human PLGF (PeproTech EC Ltd.). For the surface plasmon resonance experiment, carboxymethylated dextran biosensor chips (CM4, GE Healthcare) were activated with N-ethyl-N′-(3-dimethylaminopropyl) carbodiimide hydrochloride and N-hydroxysuccinimide according to the supplier's instructions. Each of the 6 different VEGF forms, as exemplified above, was coupled to 1 of the 4 different flow cells on a CM4 sensor chip using a standard amine-coupling procedure. […] The 4th flow cell of each chip was treated similarly except no proteins were immobilized prior to blocking, and the flow cell was used as in-line reference. […] Dissociation of the anti-VEGF scFv from the VEGF on the CM4 chip was allowed to proceed for 10 min at 25° C. Sensorgrams were generated for each anti-VEGF scFv sample after in-line reference cell correction followed by buffer sample subtraction. The apparent dissociation rate constant (kd), the apparent association rate constant (kₐ) and the apparent dissociation equilibrium constant (KD) were calculated using one-to-one Langmuir binding model with BIAcore T100 evaluation Software version 1.1. […]

[6] = target: T4, recombinant human VEGF165; assay: cell-based or functional assay
recombinant human PLGF = target: T1, recombinant human PLGF; assay: Biacore SPR, PlGF immobilized, pH 5
Experimental: (§1) In this example, the Biacore-binding ability of scFvs was tested and the binding affinity was measured using the exemplary surface plasmon resonance method with BIAcore™-T100. The VEGF proteins, tested for binding by these scFv candidates, in this example and later examples include purified Escherichia coli-expressed recombinant human VEGF₁₆₅ (PeproTech EC Ltd.), recombinant human VEGF₁₂₁ (PeproTech EC Ltd.), recombinant human VEGF₁₁₀ (ESBATech AG), recombinant murine VEGF₁₆₄ (PeproTech EC Ltd.), recombinant rat VEGF₁₆₄ (Biovision), recombinant rabbit VEGF₁₁₀ (ESBATech AG), and recombinant human PLGF (PeproTech EC Ltd.). For the surface plasmon resonance experiment, carboxymethylated dextran biosensor chips (CM4, GE Healthcare) were activated with N-ethyl-N′-(3-dimethylaminopropyl) carbodiimide hydrochloride and N-hydroxysuccinimide according to the supplier's instructions. Each of the 6 different VEGF forms, as exemplified above, was coupled to 1 of the 4 different flow cells on a CM4 sensor chip using a standard amine-coupling procedure. […] The 4th flow cell of each chip was treated similarly except no proteins were immobilized prior to blocking, and the flow cell was used as in-line reference. […] Dissociation of the anti-VEGF scFv from the VEGF on the CM4 chip was allowed to proceed for 10 min at 25° C. Sensorgrams were generated for each anti-VEGF scFv sample after in-line reference cell correction followed by buffer sample subtraction. The apparent dissociation rate constant (kd), the apparent association rate constant (kₐ) and the apparent dissociation equilibrium constant (KD) were calculated using one-to-one Langmuir binding model with BIAcore T100 evaluation Software version 1.1.

[7] = target: T4, recombinant human VEGF165; assay: Biacore SPR, VEGF immobilized, pH 5; remark: listed apart in the source
Experimental: as §1

[8] = target: T2, recombinant human VEGF121; assay: Biacore SPR, VEGF immobilized, pH 5
Experimental: as §1

[9] = target: T3, recombinant human VEGF110; assay: Biacore SPR, VEGF immobilized, pH 5
Experimental: as §1

[10] = target: T4, recombinant human VEGF165; assay: VEGFR1/Fc competition ELISA on coated hVEGF165; ratio to Lucentis
Experimental: After 30-60 min of incubation at room temperature, the mixtures were transferred to the human VEGF₁₆₅ immobilized plate and incubated for 90 min. […] Optical density at 450 nm (OD 450 nm) was measured using a Sunrise microplate reader (Tecan). Data were analyzed as above, and EC₅₀ values were calculated from the dose-response curves of the scFvs.

[11] = target: T4, recombinant human VEGF165; assay: Biacore SPR, VEGF immobilized, pH 5; remark: listed apart in the source
Experimental: as §1

[12] = target: T4, recombinant human VEGF165; assay: Biacore SPR, VEGF immobilized, pH 7.4
Experimental: as §1

T4 sequence (P15692 other isoform, or with tags, fused parts or gaps): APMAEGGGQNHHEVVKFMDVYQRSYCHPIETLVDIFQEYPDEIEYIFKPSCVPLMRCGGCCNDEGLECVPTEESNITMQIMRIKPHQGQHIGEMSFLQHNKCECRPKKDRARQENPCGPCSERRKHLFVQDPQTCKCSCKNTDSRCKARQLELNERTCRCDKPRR

Row | Binder | Kd [1] [nM] | koff [1] [s⁻¹] | kon [1] [M⁻¹ s⁻¹] | Kd [2] [nM] | koff [2] [s⁻¹] | kon [2] [M⁻¹ s⁻¹] | relative value KdhVEGF165/KdmVEGF164 [3] | relative value kdhVEGF165/kdmVEGF164 [3] | relative value KdhVEGF165/KdmVEGF164 (rat block) [4] | relative value kdhVEGF165/kdmVEGF164 (rat block) [4] | binding result (recombinant human PLGF) | koff [7] [s⁻¹] | kon [7] [M⁻¹ s⁻¹] | koff [8] [s⁻¹] | kon [8] [M⁻¹ s⁻¹] | koff [9] [s⁻¹] | koff [11] [s⁻¹] | kon [11] [M⁻¹ s⁻¹] | koff [12] [s⁻¹] | kon [12] [M⁻¹ s⁻¹] | also measured
1 | B1 | 1.53 | 0.00188 | 1.23e+06 | 1.89 | 0.00152 | 802000 | 1 | 1 | 0.8 | 1.2 | – | – | – | – | – | – | – | – | – | – | Kd [5]: 1.59 nM; koff [5]: 0.0018 s⁻¹; kon [5]: 1.13e+06 M⁻¹ s⁻¹
2 | B2 | 1.46 | 0.00216 | 1.47e+06 | 1.82 | 0.0019 | 1.04e+06 | 1.8 | 1.4 | 1.5 | 1.6 | – | – | – | – | – | – | – | – | – | – | –
3 | B3 | 0.608 | 0.000669 | 1.1e+06 | 0.845 | 0.000676 | 800000 | 0.9 | 0.6 | 0.7 | 0.6 | – | – | – | – | – | – | – | – | – | – | Kd [5]: 0.576 nM; koff [5]: 0.000409 s⁻¹; kon [5]: 711000 M⁻¹ s⁻¹
4 | B4 | – | 0.0059 | 4.09e+06 | – | 0.00645 | 3.9e+06 | – | – | – | – | no binding | 0.00272 | 2.26e+06 | 0.000249 | 742000 | 0.000235 | 0.00272 | 2.26e+06 | 0.000537 | 1.42e+06 | Rel. activity in HUVEC assay (EC50Luc[nM]/EC50test[nM]) [6]: 0.003; kon [9]: 648000 M⁻¹ s⁻¹; Rel. activity hVEGR1 comp. ELISA (EC50Luc[nM]/EC50test[nM]) [10]: 13
5 | B5 | – | 0.001 | 614000 | – | 0.000844 | 351000 | – | – | – | – | no binding | 0.00114 | 623000 | 0.000453 | 354000 | 0.000474 | 0.00114 | 623000 | 0.0108 | 3.52e+06 | kon [9]: 287000 M⁻¹ s⁻¹; Rel. activity hVEGR1 comp. ELISA (EC50Luc[nM]/EC50test[nM]) [10]: 2.9
6 | B6 | – | 0.000152 | 1.64e+06 | – | 0.000203 | 1.36e+06 | – | – | – | – | no binding | 0.000226 | 1.2e+06 | 5.76e-05 | 1.13e+06 | 3.27e-05 | 0.000226 | 1.2e+06 | 0.000167 | 1.17e+06 | Rel. activity in HUVEC assay (EC50Luc[nM]/EC50test[nM]) [6]: 0.0086; kon [9]: 1e+06 M⁻¹ s⁻¹
7 | B7 | – | – | – | – | – | – | – | – | – | – | – | – | – | – | – | – | 0.000755 | 167000 | 0.000104 | 1.13e+06 | Rel. activity hVEGR1 comp. ELISA (EC50Luc[nM]/EC50test[nM]) [10]: 0.00039
